Measured values published in US12226490B2, “Anti-ROR1 antibody conjugates, compositions comprising anti ROR1 antibody conjugates, and methods of making and using anti-ROR1 antibody conjugates preliminary class” (Sutro Biopharma, Inc., priority 2022, dated 2025).

Legend:
human ROR1-Fz = molecular target: T1, human ROR1-Fz (Homo sapiens, UniProt Q01973); experiment: Biacore off-rate and kinetic analysis, ROR1 frizzled domain; assay type: binding; conditions: for kd1 / ka1: Sample ROR1 Fz, SPR; for ka1: 1-1 Langmuir; for Biacore human ROR1-Fz ka / Biacore human ROR1-Fz kd: Table 11 (SP34 light chain)
T1 construct: Frizzled (Fz, residues 165-305); HIS6 (C); purchased Acro Biosystems; host or cells: HEK293
Method: Anti-Fc polyclonal antibodies were immobilized onto a CM5 chip (GE Life Sciences) using amine coupling chemistry (from Amine Coupling Kit, GE Life Sciences). The immobilization steps were carried out at a flow rate of 25 μL/min in 1×HBS-EP+ buffer (GE Life Sciences; 10× Stock diluted before use). The sensor surfaces were activated for 7 min with a mixture of NHS (0.05 M) and EDC (0.2 M). The Anti-Fc antibodies were injected over all 4 flow cells at a concentration of 25 ug/ml in 10 mM sodium acetate, pH 4.5, for 7 min. Ethanolamine (1 M, pH 8.5) was injected for 7 min to block any remaining activated groups. An average of 12,000 response units (RU) of capture antibody was immobilized on each flow cell.
Off-rate and kinetic binding experiments were performed at 25° C. using 1×HBS-EP+ buffer. Test and control antibodies were injected over the anti-Fc surface at concentrations of 5-10 μg/mL for 12 seconds at a flow rate of 10 μL/min on flow cells 2, 3 and 4, followed by a buffer wash for 30 seconds at the same flow rate. Kinetic characterization of antibody samples was carried out with a range of antigen concentrations from 1-100 nM and 1 injection of 0 nM antigen (for example, 100, 50, 25, 6.25, 1.56 and 0 nM). After capturing ligand (antibody) on the anti-Fc surface, the analyte (hROR1, Fz or Kr domains, Acro Biosystems, Delaware) was bound for 180 seconds, followed by a 600 second dissociation phase at a flow rate of 50 μL/min. Between each ligand capture and analyte binding cycle, regeneration was carried out using 2 injections of 10 mM Glycine pH 2.0 for 30 seconds at 30 μL/min, followed by a 30 second buffer wash step.
The data was fit with the Biacore T200 Evaluation software, using a 1-1 Langmuir binding model. KD (affinity, nM) was determined as a ratio of the kinetic rate constants calculated from the fits of the association and dissociation phases.
For anti-CD3-LC-containing IgGs that had detectable ROR1-binding in ELISA (1944-A07 and 1987-C05 variants), those antibodies were further tested for binding by surface plasmon resonance (SPR). Binding kinetics were assessed to the ROR1-frizzled domain (hROR1-Fz) or the ROR1-extracellular domain (hROR1) for 1944-A07 and 1987-C05 variants, respectively. Briefly, anti-ROR1 antibodies were captured via anti-human Fc polyclonal antibodies immobilized to a CM5 chip, and ROR1 recombinant proteins were flowed across the surface to assess binding kinetics. hROR1 or hROR1-Fz domain (Acro Biosystems, Delaware) binding was tested at 100, 50, 25, 6.25, 1.5625 nM. The data was fit with the Biacore™ T200 Evaluation software, using a 1-1 Langmuir binding model. KD (affinity, nM) was determined as a ratio of the kinetic rate constants calculated from the fits of the association and dissociation phases.

[1] = Differential scanning fluorimetry (protein thermal shift; TM1 Fc, TM2 Fab); assay type: physicochemical; conditions: melting temperature of the Fab domain; Table 11
Method: A protein thermal shift assay was carried out by mixing the protein to be assayed with an environmentally sensitive dye (SYPRO Orange, Life Technologies Cat #S-6650) in a phosphate buffered solution (PBS), and monitoring the fluorescence of the mixture in real time as it underwent controlled thermal denaturation. Protein solutions between 0.2-2 mg/mL were mixed at a 1-1 volumetric ratio with a 1-500 PBS-diluted solution of SYPRO Orange (SYPRO Orange stock dye is 5000× in DMSO). 10 μL aliquots of the protein-dye mixture were dispensed in quadruplicate in a 384-well microplate (Bio-Rad Cat #MSP-3852), and the plate was sealed with an optically clear sealing film (Bio-Rad Cat #MSB-1001) and placed in a 384-well plate real-time thermocycler (Bio-Rad CFX384 Real Time System). The protein-dye mixture was heated from 25° C. to 95° C., at increments of 0.1° C. per cycle (˜1.5° C. per minute), allowing 3 seconds of equilibration at each temperature before taking a fluorescence measurement. At the end of the experiment, the transition melting temperatures (TM1 and TM2) were determined using the Bio-Rad CFX manager software. TM1 represents the melting temperature of the Fc domain. TM2 represents the melting temperature of the Fab domain.
For the thermal stability of an antibody, the first melting peak (Tm1) coincides with the unfolding of the CH2 domain (FC stability), while the second melting peak (Tm2) occurs upon unfolding of the Fab domain.

T1 sequence (Q01973 165-305): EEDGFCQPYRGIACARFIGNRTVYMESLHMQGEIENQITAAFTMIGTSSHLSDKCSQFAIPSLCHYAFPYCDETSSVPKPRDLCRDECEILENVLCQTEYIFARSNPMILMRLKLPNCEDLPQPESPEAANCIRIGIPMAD

B1: 1944-A07 HC w/hUCHT1 LC3: HC of lead antibody 1944-A07 co-expressed with LC "derived from anti-CD3 antibodies": hUCHT1-LC3 (antibody, V domains shown)
VH: EVQLVESGGGLVQPGGSLRLSCAASGFNITGYYIHWVRQAPGKGLEWVGYISPNSGSTYYADSVKGRFTISADTSKNTAYLQMNSLRAEDTAVYYCARDSRRYVRPFDYWGQGTLVTVSS
VL: DIQMTQSPSTLSASVGDRVTITCRASQDIRNYLNWYQQKPGKAPKLLIYYTSRLHSGVPSRFSGSGSGTEYTLTISSLQPDDFATYYCQQGNTLPWTFGGGTKVEIK
Question: Which kd1 (human ROR1-Fz) does the source give for B1 here?
Answer: 0.119 s⁻¹

Question: And the ka1 (human ROR1-Fz)?
Answer: 1.85e+06 M⁻¹ s⁻¹

B2: 1944-A07 HC w/hSP34 LC3: HC of lead antibody 1944-A07 co-expressed with LC "derived from anti-CD3 antibodies": hSP34-LC3 (antibody, V domains shown)
VH: EVQLVESGGGLVQPGGSLRLSCAASGFNITGYYIHWVRQAPGKGLEWVGYISPNSGSTYYADSVKGRFTISADTSKNTAYLQMNSLRAEDTAVYYCARDSRRYVRPFDYWGQGTLVTVSS
VL: QTVVTQEPSLTVSPGGTVTLTCGSSTGAVTSGYYPNWFQQKPGQAPRGLIGGTKFLAPGTPARFSGSLLGGKAALTLSGVQPEDEAEYYCALWYSNRWVFGGGTQLTVTG
Question: What does the source list for B2?
Answer: kd1 (human ROR1-Fz): 0.00228 s⁻¹; ka1 (human ROR1-Fz): 360000 M⁻¹ s⁻¹

B3: SRP2196-A03 (antibody, V domains shown)
VH: EVQLVESGGGLVQPGGSLRLSCAASGFNITQYHIHWVRQAPGKGLEWVGYISPNSGSTHEADSVKGRFTISADTSKNTAYLQMNSLRAEDTAVYYCARDSRRYVRGWDYWGQGTLVTVSS
VL: QAVVTQESALTTSPGETVTLTCRSSTGAVTTSNYANWVQEKPDHLFTGLIGGTNKRAPGVPARFSGSLIGDKAALTITGAQTEDEAIYFCALWYSNLWVFGGGTKLTVL
Question: With B3 as the molecule, how does the “Biacore human ROR1-Fz ka” value (human ROR1-Fz) read?
Answer: 169000 M⁻¹ s⁻¹

Question: And the “Biacore human ROR1-Fz kd” value (human ROR1-Fz)?
Answer: 0.000275 s⁻¹

Question: And the TM2 [1]?
Answer: 70 °C

B4: SRP2196-A04 (antibody, V domains shown)
VH: EVQLVESGGGLVQPGGSLRLSCAASGFNISPYYIHWVRQAPGKGLEWVGQIYPISGHTYQADSVKGRFTISADTSKNTAYLQMNSLRAEDTAVYYCARESRRYVGPFGYWGQGTLVTVSS
VL: QAVVTQESALTTSPGETVTLTCRSSTGAVTTSNYANWVQEKPDHLFTGLIGGTNKRAPGVPARFSGSLIGDKAALTITGAQTEDEAIYFCALWYSNLWVFGGGTKLTVL
Question: For B4, which “Biacore human ROR1-Fz ka” value (human ROR1-Fz) is on record?
Answer: 139000 M⁻¹ s⁻¹

Question: And the “Biacore human ROR1-Fz kd” value (human ROR1-Fz)?
Answer: 0.000343 s⁻¹

B5: SRP2196-A05 (antibody, V domains shown)
VH: EVQLVESGGGLVQPGGSLRLSCAASGFNITNYYIHWVRQAPGKGLEWVGYISPNSGATYQADSVKGRFTISADTSKNTAYLQMNSLRAEDTAVYYCARDSRRYVRSWDYWGQGTLVTVSS
VL: QAVVTQESALTTSPGETVTLTCRSSTGAVTTSNYANWVQEKPDHLFTGLIGGTNKRAPGVPARFSGSLIGDKAALTITGAQTEDEAIYFCALWYSNLWVFGGGTKLTVL
Question: Which “Biacore human ROR1-Fz ka” value (human ROR1-Fz) does the source give for B5 here?
Answer: 175000 M⁻¹ s⁻¹

Question: And the “Biacore human ROR1-Fz kd” value (human ROR1-Fz)?
Answer: 0.000682 s⁻¹

Question: What about the TM2 [1] of the same molecule?
Answer: 71 °C

B6: SRP2196-A06 (antibody, V domains shown)
VH: EVQLVESGGGLVQPGGSLRLSCAASGFNITGYYIHWVRQAPGKGLEWVGQISPNSGSTHQADSVKGRFTISADTSKNTAYLQMNSLRAGDTAVYYCARDSRRYVRGWDYWGQGTLVTVSS
VL: QAVVTQESALTTSPGETVTLTCRSSTGAVTTSNYANWVQEKPDHLFTGLIGGTNKRAPGVPARFSGSLIGDKAALTITGAQTEDEAIYFCALWYSNLWVFGGGTKLTVL
Question: What does the source list for B6?
Answer: Biacore human ROR1-Fz ka (human ROR1-Fz): 180000 M⁻¹ s⁻¹; Biacore human ROR1-Fz kd (human ROR1-Fz): 0.00069 s⁻¹; TM2 [1]: 70 °C

B7: SRP2196-A07 (antibody, V domains shown)
VH: EVQLVESGGGLVQPGGSLRLSCAASGFNITGYYIHWVRQAPGKGLEWVGQISPNSGSTYYADSVKGRFTISADTSKNTAYLQMSSLRAEDTAVYYCARDSRRYVRGWDYWGQGTLVTVSS
VL: QAVVTQESALTTSPGETVTLTCRSSTGAVTTSNYANWVQEKPDHLFTGLIGGTNKRAPGVPARFSGSLIGDKAALTITGAQTEDEAIYFCALWYSNLWVFGGGTKLTVL
Question: With B7 as the molecule, how does the “Biacore human ROR1-Fz ka” value (human ROR1-Fz) read?
Answer: 186000 M⁻¹ s⁻¹

Question: What about the “Biacore human ROR1-Fz kd” value (human ROR1-Fz) of the same molecule?
Answer: 0.00064 s⁻¹

Question: What about the TM2 [1] of the same molecule?
Answer: 74 °C

B8: SRP2196-A08 (antibody, V domains shown)
VH: EVQLVESGGGLVQPGGSLRLSCAASGFNITGYYIHWVRQAPGKGLEWVGYISPNSGSTYKADSVKGRFTISADTSRNTAYLQMNSLRAEDTAVYYCARDSRRYVRSWDYWGQGTLVTVSS
VL: QAVVTQESALTTSPGETVTLTCRSSTGAVTTSNYANWVQEKPDHLFTGLIGGTNKRAPGVPARFSGSLIGDKAALTITGAQTEDEAIYFCALWYSNLWVFGGGTKLTVL
Question: For B8, which “Biacore human ROR1-Fz ka” value (human ROR1-Fz) is on record?
Answer: 183000 M⁻¹ s⁻¹

Question: And the “Biacore human ROR1-Fz kd” value (human ROR1-Fz)?
Answer: 0.00078 s⁻¹

Question: And the TM2 [1]?
Answer: 69 °C

B9: SRP2196-B05 (antibody, V domains shown)
VH: EVQLVESGGGLVQPGGSLRLSCAASGFNITGYYIHWVRQAPGKGLEWVGQISPNSGATYHADSVKGRFTISADTSKNTAYLQMNSLRAEDTAVYYCARDSRRYVRGWDYWGQGTLVTVSS
VL: QAVVTQESALTTSPGETVTLTCRSSTGAVTTSNYANWVQEKPDHLFTGLIGGTNKRAPGVPARFSGSLIGDKAALTITGAQTEDEAIYFCALWYSNLWVFGGGTKLTVL
Question: For B9, which TM2 [1] is on record?
Answer: 73 °C

B10: SRP1944-A07 w SP34 LC3 (antibody, V domains shown)
VH: EVQLVESGGGLVQPGGSLRLSCAASGFNITGYYIHWVRQAPGKGLEWVGYISPNSGSTYYADSVKGRFTISADTSKNTAYLQMNSLRAEDTAVYYCARDSRRYVRPFDYWGQGTLVTVSS
VL: QTVVTQEPSLTVSPGGTVTLTCGSSTGAVTSGYYPNWFQQKPGQAPRGLIGGTKFLAPGTPARFSGSLLGGKAALTLSGVQPEDEAEYYCALWYSNRWVFGGGTQLTVTG
Question: Which results are given for B10?
Answer: Biacore human ROR1-Fz ka (human ROR1-Fz): 597000 M⁻¹ s⁻¹; Biacore human ROR1-Fz kd (human ROR1-Fz): 0.0085 s⁻¹

B11: SRP2196-A01 (antibody, V domains shown)
VH: EVQLVESGGGLVQPGGSLRLSCAASGFNITGYYIHWVRQAPGKGLEWVGQISPNSGYTYYADSVKGRFTISADTSKNTAYLQMNSLRAEDTAVYYCARDSRRYVRGWDYWGQGTLVTVSS
VL: QAVVTQESALTTSPGETVTLTCRSSTGAVTTSNYANWVQEKPDHLFTGLIGGTNKRAPGVPARFSGSLIGDKAALTITGAQTEDEAIYFCALWYSNLWVFGGGTKLTVL
Question: For B11, which TM2 [1] is on record?
Answer: 74 °C

B12: SRP2196-A02 (antibody, V domains shown)
VH: EVQLVESGGGLVQPGGSLRLSCAASGFNITGYYIHWVRQAPGKGLEWVGQISPNSGATHDADSVKGRFTISADTSKNTAYLQMNSLRAEDTAVYYCARDSRRYVRGWDYWGQGTLVTVSS
VL: QAVVTQESALTTSPGETVTLTCRSSTGAVTTSNYANWVQEKPDHLFTGLIGGTNKRAPGVPARFSGSLIGDKAALTITGAQTEDEAIYFCALWYSNLWVFGGGTKLTVL
Question: For B12, which TM2 [1] is on record?
Answer: 71 °C
